assay: soluble on expression in E. coli; label from the status in PepcDB or PDB records

| Sequence | soluble on expression in E. coli |
| --- | --- |
| MHHHHHHSSGVDLGTENLYFQSMAAGGDHGSPDSYRSPLASRYASPEMCFVFSDRYKFRTWRQLWLWLAEAEQTLGLPITDEQIREMKSNLENIDFKMAAEEEKRLRHDVMAHVHTFGHCCPKAAGIIHLGATSCYVGDNTDLIILRNALDLLLPKLARVISRLADFAKERASLPTLGFTHFQPAQLTTVGKRCCLWIQDLCMDLQNLKRVRDDLRFRGVKGTTGTQASFLQLFEGDDHKVEQLDKMVTEKAGFKRAFIITGQTYTRKVDIEVLSVLASLGASVHKICTDIRLLANLKEMEEPFEKQQIGSSAMPYKRNPMRSERCCSLARHLMTLVMDPLQTASVQWFERTLDDSANRRICLAEAFLTADTILNTLQNISEGLVVYPKVIERRIRQELPFMATENIIMAMVKAGGSRQDCHEKIRVLSQQAASVVKQEGGDNDLIERIQVDAYFSPIHSQLDHLLDPSSFTGRASQQVQRFLEEEVYPLLKPYESVMKVKAE | soluble |
| MEFKVEDDRISLYADSKRVSWVLYRKHSGEIELLATFTAKGEEGKGYASKVVGEALNYARGFEKIKVSCPYIKSWIEKHGFDRDVEYTKLLEFKEAVEKFNRFHSPEAVAEFMKEEGEVVYVRFTGPFCVSCGVYDYFEDLTQDAEVLDYEEVEDGFIVRYRLL | not soluble |
| MPMTDLPSAVTNERTEQTNTTNEQQESKGFDYLIVGAGFAGSVLAERLASSGQRVLIVDRRPHIGGNAYDCYDDAGVLIHPYGPHIFHTNSKDVFEYLSRFTEWRPYQHRVLASVDGQLLPIPINLDTVNRLYGLNLTSFQVEEFFASVAEKVEQVRTSEDVVVSKVGRDLYNKFFRGYTRKQWGLDPSELDASVTARVPTRTNRDNRYFADTYQAMPLHGYTRMFQNMLSSPNIKVMLNTDYREIADFIPFQHMIYTGPVDAFFDFCYGKLPYRSLEFRHETHDTEQLLPTGTVNYPNDYAYTRVSEFKHITGQRHHQTSVVYEYPRAEGDPYYPVPRPENAELYKKYEALADAAQDVTFVGRLATYRYYNMDQVVAQALATFRRLQGQPEQGNAE | soluble |
| MGSDKIHHHHHHMKKFLENSIHQAIKACFFFLGKLPKKKLFIFESFHGKQYSDNPRAIFEYIRDNCPEYQCIWAVKKGYEMPFVEENVPFVKRLSWRWLWLMPRAQYWVFNTRMPAWMYKNQTTIYIQTWHGTPLKKLGLDIETVKMPEHETESYKLEVIQEAKRWDYLISPNAYSTRVFRQAFHYEGEILEIGYPRNDLLVCENKDKIAFSVRNQLGLAANKKIILYAPTWRDDESIRKGAYRFTNHLPVEQLLEIDSSIVILTRLHYLIAESFDISAFGSRVIDVSSYPDINQLYLIADLLITDYSSVMFDFALTKKPMLFFMYDKEKYQNSTRGFYFDPTAILPGKIVTDTDSLVTSVKNVLFSKTEQEQRLYVQFFREFCLENQDATRQLISEILKR | not soluble |
| MSVLRRLTWLAFPLLSMAFNVQANTAPAQLNKAELEQRFAKLGLQVEEIKTSDINGLLEVQTSGGVLFSSPDGEHFIAGTLYALDGNGGYVDVLAKRQAPLNAKKIAALQDSMIEFKAPNEKYAITVFTDITCGYCVRLHSQIKEYNDLGITVRYLAYPRQGPQGQVADQMAAIWCSNDPKAAMHDAKVNRKTITADKDIAQCQKTIAQHYMLGHELGISGTPAIFLPNGEMVGGYLPAPQLLQRLQATQ | not soluble |
| MSLNGPLKIGYYKIGAAYRDGKGYDVDMVRELARRLGCPIANETELPRLRALKMLETGQIDVSASTLATPDRLQYAWIYQYNHAKNMVLLNPAIQARTLATLLEDPALRWGAIRGYHHGPSQDKLLEELNARHKVVIANDEDDLYKMLGNGVVTAVFAQPFSYGRWLRELPNPNQIVVLDLYPETDMVASGLALSKARFSREAAEKWHQELLKMYQDGSLYDIMRRYLNEGHHHHHH | not soluble |
| MPTPGTGSVPELQLVPFQLGHFPILQRWFATEKELVQWAGPALRHPLSLEQMHEDLAESRRRPPLRLLWSACRDDQVIGHCQLLFDRRNGVVRLARIVLAPSARGQGLGLPMLEALLAEAFADADIERVELNVYDWNAAARHLYRRAGFREEGLRRSATRVGRERWNVVLMGLLRQEWAAGGAGND | soluble |
| MVFMYIGTVMVEKYNKPHLTFGDQAAQLQLRGLIINNPDDCIGALEKIGYYRLSAYWYPFRKKKPKASRTTPFNYRLDEFEPKHTFEEAVALYRFDESLRRLLLEALGVIEIQLRTKIAYFAGKQDRFIHLKRELLDPIACCRVPKNSTQDSYQIWLHKYHKQIKRAGREDFIRHYQARYGNDIPIWIATEILDFGGVSKLFDFLPKQLKNQIALSFGAKEGTVVAGWIRNFNYIRNVSAHHSRLWNRLVITRIQAPNRNVVDPSIFHLADVKNRKSP | not soluble |
| MTAPSLLIAGCGDIGSRLATRLLPHGWTVHGLRRTVSELPAGVHGVAGDLFDTRKPALWPAAALDYVVYCATPSKRDEAGYRMAYVEGLRNVLSWLEQTGQRPKRLIFVSSSGVYGQQNGEWVDEDSITEPANYTGTVMLEAEQLALNSGLPATAVRLTGIYGPGRSDLSNRVRQGHSVRIDPPVYANRIHADDAASLLEHLLQADQRGVALESCYLGVDDDPAALADVVAWIREYLGVTEWSEEVSVQRVGSKRCSNARARALGWTPMYPDYRAGYAALLG | not soluble |
| MGSDKIHHHHHHMSESAESVDLIKLPVSKLTLGMFVSAIDKNDQGRLAIANAGQIKHKDAILKLTKNGIKYVWVDTERSAEHCGFKRKVSNDSQVKKSIVTREKQQEQAQVILTEAKDLIRKVLSETFEGKAIEVAPFEALADSMIESVLLDEDALKCMSALRTKDAYLLEHSVNVAFLLVTFGKYLKLDRSMLREMAVGGILHDIGKIKVDNKVLHKPGKLTPEEFEHMKLHQVYALEIMSETKGLSQISKDVCLMHHEKLDGRGYPRGLKGDEIPLHGRMSCIVDIFDALTATRCYKEAMSPAAAFKILLSLTPFHLDQQLVYDFIRCIGVYPVGSLVELSDGRVGIVWASKDRDALHPIVKCFYSLKAKRYTEVVIVDLLKSELHIERGVSPSSLDIDPTPFY | not soluble |
| MGREALGKCPVCNNETTITRITCEKCNTTIEGRFDLCKFCRLTPEQKLFVDVFIKCRGNIKEVEKELGVSYPTVKNKLEDVANALGHKSEEAPVEETNRKEILDKLYEGEISVDEALELLKG | not soluble |
| MAHHHHHHMRCHVMGPSGHKSEYHCATLLGNWQEERRSFGFVDPAREPLSYMTVYKDSFRGTKTDEELANAKPPSCFHENALPELLFYHNEITNPPKNLLTVNELSYTNAKGGEEVNTLHDILHKEGVSKKRDKTIAIRRELGFIGYGAPHEGSLLASKGATATPLDYTMRCGTTTDQNFLESTRGGCYKPPVIPAIGRMQEKQRLLTTKNVTVDATGEYLKDNIDEYPATSSECWGMFMKFTDNMKGKKLRECYED | not soluble |
| MGSDKIHHHHHHMNSNFLSSYPRDVIAVLVKDDQPLEQPKCNVRLAEFTYATVGVNGEPTTASAAMLVPGGPQCQGPYPLLGWGDGTQTLRRDEMAKDIRDAKGNDPLVTHLASQGYVVVSTDYLGLGKSSYPFHPYLHSATEANAMIDALRAARTVLDRLNTPLSGKVMLSGYSVGGHAAMASQREIEAHLSKEFNLVASAPIAGPYALEQTFVDSWSGRNTVGESTFGLVLASYAIVGMQHAYQNIYTAPSQVFRAPWAATVESQFPGTKSLLDLFVDLPEIGKVKQYFQADFYRDFASNPNNPFRKDLARNDLLDWRPRTKTLLCGSSNDATVPLKNATTAIAAFEQRGSTQVSLVDLGTGKASDNSAGEHLAIKDSCIVAVRQQLLDKQR | not soluble |
| MGSDKIHHHHHHMSEDILPITISLAGEKDTIRLGEDLALALKPGDCLTLIGDLGAGKSTLARAFIRAMADEPDLEVPSPTFTIIQTYTTRIPVAHLDLYRLSDVSELDELGIDEMLEDGICLIEWPDIAAEVLPPAQTITLQLTHSGEGRVAVIEAPAQQKARLDRVFAIREFLAKNGRGDATRRFLSGDASTRAYETISTDGPDLILMDWRRPMRGAIVADGKTYAEIVHLAQDARSFVAIGDYLRNSGFRAPEILAADIDQGILLLEDLGREGVLAADGTPIEERYLQSVACLATLHQTPRPALLPMRDGSTYDIPSFDRQAMKIEVSLLVEWYLPHKRGKALTDGEKQDYYAIWDGLIDALAGCETGLLLRDFHSPNILWQAQNSGIGQVGLIDFQDAMIGPTAYDLASIVQDARVTIPPELQTRLMSHYLNSRKATPAFDEAAFLKAFAIMSAQRNCKLAGIWVRLLERDKKPGYMKHMPRTFRYLADALSHPELAPLREWCVRMGMDFND | not soluble |
| MSLTVLILRCIMVKSTTRKSAKSDRRRYNRIARFYDLFETPMELMNFRKWRKMLFDLIKAEKGLVLEIGAGTGKNIPHYPSNVVALDISEKMLERAVRRAKESGKKVDFLLADAENLPFRSNSFDVVFTTFVFCSVDDPVRGLREAFRVLKKGGRAYFLEHMLPKSRFLHPLFNLLNPIFRAFGPEINRRTDENIQRAGFQIVKEYMLFGSVFRLIVAEKPLDSVDEASGYSLKRSESSDSSNFRRFIGQSLLPLRLTQLLREGHHHHHH | not soluble |
| MKIKSIEARNISIPLNRPIHNPAFKFTHCKYTIVTVTTDEDITGWSFSFGMHHTKAVVDELAEILVGEEIDTRRLYEKMMRTQAVRWDRGGISMRALSAIDIALWDIVGKSCGLPLYRLMGCYREEIPVYYSGGHYPVDSTKTSDMLDYLEQDIGKGLDRGFSSFKIKIGGAAVNQDLERIAFCRKLIGPYRRLMVDAFCAYEADVIIPMAKKFEQYDIGFLEEPVALDDIPGCAYVAANVSMPVALGESHYTMAQFRDIINSKAARILQPDVAYVGGITGFMQYAGIAAYHGLRLAPHWCHDLSVQLALSIPQIRELEYMDQNSALFLIQKVIENPVTAKNGIVRAPEGAGHGLVLDEKAVERYLA | soluble |
| MFCTLAGYRWLNSGSLLRRLSQRAVRRLPTAPLCHLHNGATESAASNGALRIVDEKVAYRRYATVFERTVQYPDGRHVTYDILGQPAVQSASVLVFPFDTQSKTCYVIREYCPGPNRVLYGFPAGMVETKHESLEAAARAELSEEAHLRCAQLIDLTAQAAVWERSFEVPNTASDAENCLRGFFADKYSRNVCKMYLALNPEPDGHPGSMDAEELIEQVGAVRVPQLEAWLWSGQMTMPHMLLAMCALTYLRQRGMLT | not soluble |
| MSQHLVPEAKNGLSKFKNEVANEMGVPFSDYNGDLSSRQCGSVGGEMVKRMVEKYEQSMK | soluble |
| MGSDKIHHHHHHMGRRLRVEYLGAMYHVVQRGNNREFIFGRPDERDYLIEQVGNAVKVDGVTVFAYVVMSNHYHLLLRTDGEFLSKVMHRVNTRYSRFFNCDSGRDRTGVVFEGRYKAILVQNDDYLLSLVRYIHRNPLRAGIVSRFCDYRWSSDACYRQQGNGPGGGDFVNCDLILRMFSDKKQIALREYKRFMENDDGKDWENIPCIGDDSFAQLAEPRKEKAGRVSLDEILINTGVDNEEFQLIKQGSRKRLLQKYKIAFTGEAIGQGYTMREIGQHIKLSHVAISHLFNSKQDSK | not soluble |
| MLNDLYEEIKLRKTQPREGSYTNYLFDKGLDKILKKVGEEATEVVIAAKNDNQELIAEVSDLAYHLLVLLAEKNIPLVAIQTELQKREGKLSTTRDRKEINDL | not soluble |
| MRGSHHHHHHTDPALRAALKATIYKATVNVADLDRNQFLDASLTLARHPSETQERMMLRLLAWLKYADERLQFTRGLCADDEPEAWLRNDHLGIDLWIELGLPDERRIKKACTQAAEVALFTYNSRAAQIWWQQNQSKCVQFANLSVWYLDDEQLAKVSAFADRTMTLQATIQDGVIWLSDDKNNLEVNLTAWQQPSGLCGR | soluble |
| MSSLHLDALHWSPDASTELLRGVHLEVPAGSFVGLIGPNGSGKTSLLRCAFRYARPQRGRVVLDGDDLWRQPPRWAARRIAVVLQEFPEDFGLAVEDVVAMGRTPHKGLFDGHGADDRQRVRQALLQVGLEGRAASPFASLSGGEKQRALLARALVQEPRLLILDEPTNHLDPRYQLELLRLLRSLGLSTLASFHDLNLAAAFCDRLYVLDGGRIVAQGTPTEVLDADLLWRVFGVRALVDRHPLADHPR | not soluble |

Source: the DeepSol protein solubility set
